Results on two molecules are retold here after ChEMBL document CHEMBL3525993, “Identification of multiple binding sites for substrate transport in bovine organic anion transporting polypeptide 1a2” (Drug Metab Dispos, 2013).

In series [1] the target is T1, OATP1A2 (Homo sapiens, UniProt P46721).
T1 sequence (P46721 whole entry): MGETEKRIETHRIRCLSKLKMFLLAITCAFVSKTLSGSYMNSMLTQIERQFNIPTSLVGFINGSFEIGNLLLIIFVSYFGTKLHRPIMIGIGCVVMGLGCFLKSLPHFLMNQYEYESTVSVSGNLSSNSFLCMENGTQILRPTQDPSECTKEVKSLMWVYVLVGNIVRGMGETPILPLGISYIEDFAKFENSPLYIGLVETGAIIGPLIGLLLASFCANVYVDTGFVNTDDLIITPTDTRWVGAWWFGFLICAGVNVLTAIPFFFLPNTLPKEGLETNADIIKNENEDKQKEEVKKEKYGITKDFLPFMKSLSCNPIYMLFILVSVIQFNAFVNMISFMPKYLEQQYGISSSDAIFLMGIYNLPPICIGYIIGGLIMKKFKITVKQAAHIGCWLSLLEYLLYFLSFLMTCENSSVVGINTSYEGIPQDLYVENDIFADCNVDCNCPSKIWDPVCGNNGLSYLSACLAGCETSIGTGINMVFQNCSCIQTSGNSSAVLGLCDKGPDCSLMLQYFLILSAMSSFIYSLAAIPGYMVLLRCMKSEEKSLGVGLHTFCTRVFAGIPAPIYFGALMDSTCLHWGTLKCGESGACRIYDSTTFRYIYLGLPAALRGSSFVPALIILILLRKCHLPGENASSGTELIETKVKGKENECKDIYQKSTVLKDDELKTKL
The series is described as follows: (§1) Cellular uptake in HEK293 cells assessed as human OATP1A2-mediated drug uptake at 0.05 uM after 1 min by Eadie-Hofstee plot analysis. Type of series: ADME, cell-based. The settings on record: HEK293 cells expressing human OATP1A2.

In series [2] the target is T2, Solute carrier organic anion transporter family member 1A2 (Homo sapiens, UniProt P46721).
T2 sequence (P46721 whole entry): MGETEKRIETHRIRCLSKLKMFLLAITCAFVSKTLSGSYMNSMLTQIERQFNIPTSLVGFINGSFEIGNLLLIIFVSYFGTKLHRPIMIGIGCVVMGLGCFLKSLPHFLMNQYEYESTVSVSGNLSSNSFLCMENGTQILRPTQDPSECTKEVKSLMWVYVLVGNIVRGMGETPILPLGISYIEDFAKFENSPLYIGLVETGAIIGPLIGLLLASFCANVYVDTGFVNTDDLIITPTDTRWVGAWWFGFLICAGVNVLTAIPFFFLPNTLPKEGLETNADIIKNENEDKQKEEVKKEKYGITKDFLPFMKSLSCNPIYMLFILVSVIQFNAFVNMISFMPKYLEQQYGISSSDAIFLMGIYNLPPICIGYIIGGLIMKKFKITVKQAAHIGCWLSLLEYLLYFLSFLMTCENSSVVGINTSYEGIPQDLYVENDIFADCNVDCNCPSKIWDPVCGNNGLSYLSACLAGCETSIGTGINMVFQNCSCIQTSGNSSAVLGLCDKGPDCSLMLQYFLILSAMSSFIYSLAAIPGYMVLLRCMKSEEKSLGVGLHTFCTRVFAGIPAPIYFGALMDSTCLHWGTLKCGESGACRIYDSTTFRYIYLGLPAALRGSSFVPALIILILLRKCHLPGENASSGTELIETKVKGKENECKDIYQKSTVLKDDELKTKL
The series is described as §1. Type of series: ADME, cell-based. To be noted: hek293, 1 min, 0.05 µM.

Series [3] addresses T1, OATP1A2. The series is described as follows: Cellular uptake in Xenopus oocytes cells assessed as OATP1A2 (unknown origin)-mediated drug uptake. The settings on record: Xenopus oocytes expressing OATP1A2. The class given is ADME, cell-based, Oocyte.
Substrate in series [4]: C[C@]12CC[C@@H]3c4ccc(OS(=O)(=O)O)cc4CC[C@H]3[C@@H]1CCC2=O
The series is described as follows: Cellular uptake in HEK293 cells assessed as bovine high affinity site of OATP1A2-mediated drug uptake at 0.01 to 50 uM after 1 min by Eadie-Hofstee plot analysis. Type of series: ADME, cell-based, Bos taurus.

Substrate in series [5]: C[C@]12CC[C@@H]3c4ccc(OS(=O)(=O)O)cc4CC[C@H]3[C@@H]1CCC2=O
The series is described as follows: Cellular uptake in HEK293 cells assessed as bovine low affinity site of OATP1A2-mediated drug uptake at 0.01 to 50 uM after 1 min by Eadie-Hofstee plot analysis. The class given is ADME, cell-based, Bos taurus.

Usually Km stands for the concentration of substrate that gives half-maximal velocity. One may read the Vmax as the top rate of the reaction or transport when substrate is in excess. Consider `C[C@]12CC[C@@H]3c4ccc(OS(=O)(=O)O)cc4CC[C@H]3[C@@H]1CCC2=O` [ESTRONE SULFURIC ACID], for which the Michaelis constant (Km) at 1 min in series [1] stood at 16.1 µM. Also, the Vmax in series [2] worked out at 39.4 pmol/mg/min. For the same molecule, in series [3], the Km amounted to 9.6 µM.

B1: Solute carrier organic anion transporter family member (Bos taurus) (protein)
chain: MGETEERIETHRIRCLSKLKMFLLAITCAFVSKTLSGSYMNSMITQIERQFNIPTSLVGFINGSFEIGNLLLIIFVSYFGTKLHRPIMIGVGCVVMGLGCFLQSLPHFLMGRYEYESTVSVSGNLSSNSFLCMENGTQIFKPTKDPSECVKEVKSLMWVYVLVGNIIRGIGETPIMPLGISYIEDFAKFENSPLYIGLIKTGGIIGPLIGLSLASFCANVYVDTESVNTDDLTITPSDTRWVGAWWIGFLICAGVNVLTAIPFFFLPKTLPKEGLEENAEIIKNDKEKQEDIKKKRDAITKDFLPFMKSLLCNPIYMLFILISVLQFNAFVSMVSFMPKYMEQHYGKSASEAIFLLGIYNFPPICIGYIVGGLFMKKFKITAVQAAHIGCWLSFTEYLLHFLCFFMICDSSSVAGLTTSYEGIHQNLRVKNFLADCNMDCNCPTKVWDPVCGNNGLSYTSACLAGCEISSGTGRKMVFQNCSCIQTPGNSSAVLGLCDKGKDCSMMLQYFLILSVFSSFIFSLSAIPGYMVLLRCVKPEEKSLGVGLHAFCTRVLAGIPAPIYFGALVDSTCLHWGTLKCGESGACRIYDSNSFRYIYLGIPAALRGSSYIPAFLILFILRKYRLPGENASSETMLVAKFTGKENEGKEMDQNAKVLNDDELKTKL
Turning to B1, in series [4], the Michaelis-Menten constant (Km) worked out at 0.25 µM and the maximal velocity (Vmax) was 2.45e-05 µmol/min/mg. Further, in series [5], the Km is 46.6 µM and the Vmax worked out at 0.000375 µmol/min/mg.
